Laboratory results published in article PMC3700353.

Substrate: N[C@@H](CC(=O)c1ccccc1NC=O)C(=O)O
Test: purified protein
Assay type: biochemical, Drosophila melanogaster
Conditions: 50 mM potassium phosphate pH 7.4, 22 °C, 0.02–1.00 mM NFK

B1: KFase (kynurenine formamidase) (Drosophila melanogaster) (protein)
chain: MYNPRCKDLDRDYFPSYHTTRFQDQPEPNLAVLEHFVRVTKQHGRELTEKQGITVDHLRYGEGRQLVDVFYSEKTTNQAPLFVFVHGGYWQEMDMSMSCSIVGPLVRRGYRVAVMDYNLCPQVTLEQLMTQFTHFLNWIFDYTEMTKVSSLTFAGHSAGAHLLAQILMRPNVITAQRSKMVWALIFLCGVYDLRELSNLESVNPKNILGLNERNIESVSPMLWEYTDVTVWNSTKIYVVAAEHDSTTFIEQSRHYADVLRKKGYKASFTLFKGYDHFDIIEETAIDDSDVSRFLRNIEIE
Km: 320 ± 60 µM | kcat: 26.4 ± 4.45 s⁻¹
